Literature values in PMC11996608.

Target: core RNA polymerase (Escherichia coli) (UniProt P0A7Z4)

RapA, sequence (P60240 2-968): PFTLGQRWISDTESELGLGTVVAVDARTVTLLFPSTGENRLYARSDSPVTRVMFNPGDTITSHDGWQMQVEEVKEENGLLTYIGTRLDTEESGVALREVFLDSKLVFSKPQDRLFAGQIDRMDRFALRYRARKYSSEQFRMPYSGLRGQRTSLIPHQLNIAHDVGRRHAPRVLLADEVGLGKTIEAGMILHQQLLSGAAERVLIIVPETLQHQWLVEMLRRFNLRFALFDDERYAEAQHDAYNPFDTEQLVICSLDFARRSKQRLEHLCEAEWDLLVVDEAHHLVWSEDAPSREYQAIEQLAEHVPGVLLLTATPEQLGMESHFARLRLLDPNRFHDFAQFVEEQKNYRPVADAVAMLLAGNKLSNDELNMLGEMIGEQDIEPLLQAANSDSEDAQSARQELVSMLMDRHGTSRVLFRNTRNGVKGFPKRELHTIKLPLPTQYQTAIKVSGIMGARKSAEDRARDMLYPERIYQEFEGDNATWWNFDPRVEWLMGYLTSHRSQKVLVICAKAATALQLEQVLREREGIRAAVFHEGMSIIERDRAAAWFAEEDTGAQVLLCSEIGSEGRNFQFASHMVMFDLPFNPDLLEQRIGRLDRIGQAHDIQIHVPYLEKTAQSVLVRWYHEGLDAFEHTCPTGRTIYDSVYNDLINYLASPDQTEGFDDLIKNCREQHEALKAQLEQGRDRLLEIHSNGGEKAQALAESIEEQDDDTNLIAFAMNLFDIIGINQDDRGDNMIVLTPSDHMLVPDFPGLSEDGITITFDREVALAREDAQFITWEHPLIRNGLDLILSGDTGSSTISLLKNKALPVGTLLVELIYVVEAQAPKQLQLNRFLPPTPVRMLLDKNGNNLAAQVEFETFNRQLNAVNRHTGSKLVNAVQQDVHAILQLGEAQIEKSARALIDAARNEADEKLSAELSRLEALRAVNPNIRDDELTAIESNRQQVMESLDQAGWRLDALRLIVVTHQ

- Kd: 7.5 nM
Substance: RapA (from UniProt P60240)
